Measurements reported in patent US20060270591A1, “Androgen receptor coregulators” (priority 2002, published 2006).

Key:
GR = target: T1, GR (Homo sapiens, UniProt P04150); assay: GR transactivation with ARA70 in DU145 cells (Example 3); assay type: cell-based; set-up: expressed in transfected cells; host or cells: DU145
T1 sequence (P04150 1-777): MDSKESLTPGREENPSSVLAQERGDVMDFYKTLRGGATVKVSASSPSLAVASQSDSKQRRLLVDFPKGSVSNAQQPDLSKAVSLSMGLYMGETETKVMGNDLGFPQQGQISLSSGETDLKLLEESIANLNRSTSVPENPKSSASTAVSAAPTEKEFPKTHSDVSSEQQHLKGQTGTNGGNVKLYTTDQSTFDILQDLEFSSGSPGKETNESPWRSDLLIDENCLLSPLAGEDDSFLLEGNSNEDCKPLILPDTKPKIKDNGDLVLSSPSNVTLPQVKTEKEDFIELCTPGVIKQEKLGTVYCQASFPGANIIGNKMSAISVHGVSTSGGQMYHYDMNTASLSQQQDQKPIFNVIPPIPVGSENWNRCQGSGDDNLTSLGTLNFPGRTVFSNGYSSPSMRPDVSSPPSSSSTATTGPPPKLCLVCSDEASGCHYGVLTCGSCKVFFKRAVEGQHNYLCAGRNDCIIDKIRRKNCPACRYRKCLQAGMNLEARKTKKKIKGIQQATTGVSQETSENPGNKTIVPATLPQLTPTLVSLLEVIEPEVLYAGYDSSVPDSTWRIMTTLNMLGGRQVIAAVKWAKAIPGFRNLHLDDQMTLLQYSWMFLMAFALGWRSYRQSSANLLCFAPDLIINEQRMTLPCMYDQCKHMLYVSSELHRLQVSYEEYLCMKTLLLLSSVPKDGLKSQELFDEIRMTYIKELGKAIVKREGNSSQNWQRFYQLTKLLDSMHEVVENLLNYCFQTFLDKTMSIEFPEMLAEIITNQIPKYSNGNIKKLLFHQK
Procedure: 411. Human prostate cancer DU145 and PC-3 cells were maintained in […] (DMEM) containing penicillin (25 U/ml), streptomycin (25 μg/ml), and 5% fetal calf serum (FCS). Human LNCaP cells were maintained in RPMI containing penicillin (25 U/ml), streptomycin (25 μg/ml), and 10% FCS. Transfections were performed using the calcium phosphate precipitation method, as previously described (Dynlacht et al. (1991) Cell 66, 563-576). Briefly, 4×10^5 cells were plated on 60-mm dishes 24 hours before transfection, and the medium was changed to DMEM with 5% charcoal-dextran stripped FCS (CS-FBS) one hour before transfection. Transfection medium contained a constant amount of reporter plasmid and indicated amounts of pSG5-receptor, ARA70, or pCMX-GAL fusion construct using pSG5 as a carrier to provide equal amounts of transfected DNA. Twenty-four hours after transfection, the medium was changed again, and the cells were treated with DHT or other treatments. After another 24 hours, the cells were harvested for chloramphenicol transferase (CAT) or luciferase assays. At least three independent experiments were carried out in each case. Superfect (Qiagen) was used for transfection in LNCaP cells. The transfection conditions followed the manufacturer's protocol. […]

AR = conditions: CV-1 cells; reported by others; cited from earlier work
[1] = target: T2, AR N-terminus and AR C-terminus (Homo sapiens, UniProt P10275); assay: Mammalian two-hybrid assay of AR N-C interaction in PC-3 cells; assay type: cell-based; conditions: DHT
T2 construct: AR DBD plus LBD (GST-AR-DL); expressed in transfected cells; host or cells: PC-3 cells (human prostate cancer line)
T2 sequence (P10275 555-920 limits assumed): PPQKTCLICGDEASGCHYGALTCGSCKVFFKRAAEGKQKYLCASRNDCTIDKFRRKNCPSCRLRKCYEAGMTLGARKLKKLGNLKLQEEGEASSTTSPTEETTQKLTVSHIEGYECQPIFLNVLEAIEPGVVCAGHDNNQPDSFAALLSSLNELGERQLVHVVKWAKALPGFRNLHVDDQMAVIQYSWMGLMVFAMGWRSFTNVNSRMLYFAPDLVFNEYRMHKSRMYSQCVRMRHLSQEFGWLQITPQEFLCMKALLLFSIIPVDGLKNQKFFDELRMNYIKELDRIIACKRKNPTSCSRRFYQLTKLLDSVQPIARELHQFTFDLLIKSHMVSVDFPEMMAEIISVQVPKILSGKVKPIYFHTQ
T2 sequence (P10275 1-559 partner limits assumed): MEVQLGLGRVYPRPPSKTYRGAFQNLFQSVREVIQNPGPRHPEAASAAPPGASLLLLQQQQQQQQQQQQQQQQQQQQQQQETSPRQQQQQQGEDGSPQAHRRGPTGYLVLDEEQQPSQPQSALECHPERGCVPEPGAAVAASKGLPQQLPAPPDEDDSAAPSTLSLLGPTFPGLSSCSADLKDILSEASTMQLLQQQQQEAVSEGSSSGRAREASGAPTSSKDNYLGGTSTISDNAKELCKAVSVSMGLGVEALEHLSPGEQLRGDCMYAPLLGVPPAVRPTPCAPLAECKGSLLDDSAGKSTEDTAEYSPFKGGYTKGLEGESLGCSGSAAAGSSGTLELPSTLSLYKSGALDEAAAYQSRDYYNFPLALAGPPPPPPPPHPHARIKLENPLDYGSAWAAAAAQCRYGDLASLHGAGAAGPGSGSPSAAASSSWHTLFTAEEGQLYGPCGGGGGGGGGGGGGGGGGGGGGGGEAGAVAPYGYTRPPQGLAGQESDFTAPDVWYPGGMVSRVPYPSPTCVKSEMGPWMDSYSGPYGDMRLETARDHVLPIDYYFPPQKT
Procedure: 44. […] PC-3 cells were transfected with 30 ng plasmids expressing Gal4(DBD)-AR-DL, VP16 or VP16-ARN combined with 1.5 μg pSG5, pSG5-bSV, -ARA55, or -SRC-1α as indicated. The reporter plasmid pG5-Luc (0.5 μg) and control plasmid pRL-Luc (1 ng) were transfected to every sample. The assay was carried out as described in FIG. 29C.
474. Mouse myoblast cell line (C2C12), human prostate cancer cell lines (PC-3 and DU145), and monkey kidney fibroblast cell line (COS-1) were maintained in Dulbecco's minimum essential medium (DMEM) containing penicillin (25 units/ml), streptomycin ([…]), and 10% fetal bovine serum (FBS). In mammalian two-hybrid assay, transfections were performed using the calcium phosphate precipitation method as described previously (15). Briefly, 1.5-3×10^5 cells were plated on 35-mm dishes for 24 h, and the medium was changed to DMEM containing 10% charcol-dextran stripped FBS (CD-FBS) 2 h before transfection. Cells were transfected with 0.5 μg plasmids expressing Gal4(DBD) and VP-16 fusion proteins as indicated. Gal4 response element controlled Firefly luciferase expression plasmid, pG5-Luc, was used as reporter gene. A Renilla luciferase expression plasmid pRL-SV40 was used as an internal control for transfection efficiency. The total amount of DNA was adjusted to 5 μg with pCMX-VP16 vectors. […]

Sequence of AR (P10275 whole entry, the tested form may be a part): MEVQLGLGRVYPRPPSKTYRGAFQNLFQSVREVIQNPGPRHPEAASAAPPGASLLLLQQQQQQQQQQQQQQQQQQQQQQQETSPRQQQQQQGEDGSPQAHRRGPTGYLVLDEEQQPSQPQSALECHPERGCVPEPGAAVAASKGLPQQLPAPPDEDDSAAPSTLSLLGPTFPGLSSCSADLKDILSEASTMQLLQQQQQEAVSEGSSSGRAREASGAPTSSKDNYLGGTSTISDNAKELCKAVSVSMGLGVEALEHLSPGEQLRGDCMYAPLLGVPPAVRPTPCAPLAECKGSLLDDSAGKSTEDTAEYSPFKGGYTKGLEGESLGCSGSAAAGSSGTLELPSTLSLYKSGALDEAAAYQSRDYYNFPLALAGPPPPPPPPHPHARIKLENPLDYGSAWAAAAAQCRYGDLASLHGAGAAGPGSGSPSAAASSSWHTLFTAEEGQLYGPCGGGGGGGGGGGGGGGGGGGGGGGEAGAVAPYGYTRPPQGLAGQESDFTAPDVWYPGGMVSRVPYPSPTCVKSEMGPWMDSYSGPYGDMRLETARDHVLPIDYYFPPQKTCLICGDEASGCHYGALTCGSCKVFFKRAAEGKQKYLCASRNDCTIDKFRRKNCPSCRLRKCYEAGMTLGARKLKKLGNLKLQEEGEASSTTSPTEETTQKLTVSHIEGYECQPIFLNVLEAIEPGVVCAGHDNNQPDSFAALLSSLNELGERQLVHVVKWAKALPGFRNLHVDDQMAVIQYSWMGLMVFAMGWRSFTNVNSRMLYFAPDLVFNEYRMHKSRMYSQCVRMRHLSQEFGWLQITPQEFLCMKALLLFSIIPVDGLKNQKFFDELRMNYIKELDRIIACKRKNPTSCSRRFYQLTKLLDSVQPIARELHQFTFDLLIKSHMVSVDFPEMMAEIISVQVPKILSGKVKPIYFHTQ

Substance | enhancement of GR transactivation (GR) | enhancement of AR activity (AR) | effect on AR N-C interaction [1]
ARA70: ligand-enhanced AR coregulator, full length ARA70 | 2-3 fold | 2-3 fold | –
SV: supervillin, 205 kDa actin binding protein; bovine SV (a.a. 1-1792) used in reporter assays | – | – | mild suppressive effect
